Consider 3 molecules from patent US20090092617A1 (K BENHAVNS UNIVERSITET, published 2009).

A word on the Kd: it is the free concentration of one partner at which half of the binding sites on the other are occupied at equilibrium, for simple one-to-one binding.

Where no end group is shown, it is not given here.

The target in assay [1] is T1, Recombinant protein comprising the whole extracellular part of human ErbB1 (human, UniProt P00533 25-645).
T1 construct: extracellular domain; also called EGF receptor; EGFR
Nature of the assay: SPR (BIAcore 2000), peptide dendrimer immobilized, receptor ECD injected; mean ± SEM, SEM 4.9e-9 in r8c2. The method, then: (§1) Binding analyses were performed with the surface plasmon resonance (SPR)-based biosensor instrument BIAcore2000 (BIAcore AB, Uppsala, Sweden), at 25° C. using ready-made HBS-EP buffer (BIAcore AB) as running buffer. Peptides were immobilized on the surface of a CM5 sensor chip (BIAcore AB) using an amine coupling kit (Biosensor AB, Uppsala, Sweden) according to the manufacturer's instructions, at a flow rate of 5 μl/min. Briefly, carboxyl groups on the sensor chip surface were activated by injection of 35 μl activation solution followed by injection of peptide (50 μg/ml peptide in HBS-EP buffer, pH 7.4) until the desired level of immobilized peptide was reached. Unreacted peptide was washed out and unreacted activated groups were blocked by the injection of 35 μl 1 M ethanolamine. The final immobilization response was app. 7000-9000 resonance units (RU). […] ErbB receptor proteins were injected at various concentrations at a flow rate of 20 μl/min, and binding to the peptides immobilized on the chip was measured in real-time. […] Data were analyzed by nonlinear curve fitting using the manufacturer' software. […]
(§2) The binding of three Inherbin peptides to all four members of the ErbB receptor family was determined using surface plasmon resonance (SPR) binding analysis (table 1).
(Surface plasmon resonance follows binding to a sensor surface in real time, without labels.)

Assay [2] deals with T2, Human ErbB3 extracellular part fused to Fc of human IgG1 (human, UniProt P21860 20-643).
T2 construct: extracellular domain; also called ErbB3-Fc chimeric protein; not shown: Fc region of human IgG1
T2 sequence (P21860 20-643): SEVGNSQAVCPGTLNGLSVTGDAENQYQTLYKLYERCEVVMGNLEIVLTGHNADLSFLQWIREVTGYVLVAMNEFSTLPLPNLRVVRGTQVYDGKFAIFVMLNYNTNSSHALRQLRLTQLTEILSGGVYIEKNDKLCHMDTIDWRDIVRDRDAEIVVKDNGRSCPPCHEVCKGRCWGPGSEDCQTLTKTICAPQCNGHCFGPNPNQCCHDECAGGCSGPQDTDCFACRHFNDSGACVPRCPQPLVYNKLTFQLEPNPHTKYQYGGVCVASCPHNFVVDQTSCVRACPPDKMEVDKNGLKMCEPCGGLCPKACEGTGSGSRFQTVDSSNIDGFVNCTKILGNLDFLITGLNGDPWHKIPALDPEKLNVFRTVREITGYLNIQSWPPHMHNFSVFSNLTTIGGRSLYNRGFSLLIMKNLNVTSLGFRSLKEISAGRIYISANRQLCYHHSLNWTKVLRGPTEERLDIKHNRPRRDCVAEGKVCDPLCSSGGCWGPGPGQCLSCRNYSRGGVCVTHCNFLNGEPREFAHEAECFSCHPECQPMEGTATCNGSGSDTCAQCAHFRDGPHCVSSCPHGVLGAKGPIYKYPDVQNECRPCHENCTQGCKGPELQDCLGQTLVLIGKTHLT
Description: SPR (BIAcore 2000), peptide dendrimer immobilized, receptor ECD-Fc injected; mean ± SEM, SEM 8e-9 in r11c2. The method, then: as §1, §2

Assay [3] deals with T3, Human ErbB2 extracellular part fused to Fc of human IgG1 (human, UniProt P04626 23-652).
T3 construct: extracellular domain; also called ErbB2-Fc chimeric protein; not shown: Fc region of human IgG1
Description: SPR (BIAcore 2000), peptide immobilized on CM5 chip, receptor protein injected. The method, then: (§3) Binding analyses were performed with the surface plasmon resonance (SPR)-based biosensor instrument BIAcore2000 (BIAcore AB, Uppsala, Sweden), at 25° C. using ready-made HBS-EP buffer (BIAcore AB) as running buffer. Peptides were immobilized on the surface of a CM5 sensor chip (BIAcore AB) using an amine coupling kit (Biosensor AB, Uppsala, Sweden) according to the manufacturer's instructions, at a flow rate of 5 μl/min. Briefly, carboxyl groups on the sensor chip surface were activated by injection of 35 μl activation solution followed by injection of peptide (50 μg/ml peptide in HBS-EP buffer, pH 7.4) until the desired level of immobilized peptide was reached. Unreacted peptide was washed out and unreacted activated groups were blocked by the injection of 35 μl 1 M ethanolamine. The final immobilization response was app. 7000-9000 resonance units (RU). A reference surface was generated simultaneously under the same conditions but without peptide injection and used as a blank chip control. ErbB receptor proteins were injected at various concentrations at a flow rate of 20 μl/min, and binding to the peptides immobilized on the chip was measured in real-time. The curve corresponding to the difference between signals on flow cells with immobilized peptide and the signal on the blank flow cell was used for analysis. Each sensorgram consists of an association phase (the first 320 seconds), reflecting binding of the injected receptor to the peptide, and a dissociation phase (app. 300 seconds), during which running buffer is passed over the chip and the bound receptor is being washed off. Data were analyzed by nonlinear curve fitting using the manufacturer' software. The recombinant protein comprising the whole extracellular part of human ErbB1 (also termed the EGF receptor, EGFR) was purchased from Research Diagnostics (Concord, Mass., USA). Recombinant proteins comprising the Fc region of human IgG₁ and the Fc protein fused to the extracellular parts of human ErbB2, ErbB3 or ErbB4 were purchased from R&D Systems Europe (Abingdon, UK).
as §2

Assay [4] has as its target T4, Human ErbB4 extracellular part fused to Fc of human IgG1 (human, UniProt Q15303 26-651).
T4 construct: extracellular domain; also called ErbB4-Fc chimeric protein; not shown: Fc region of human IgG1
T4 sequence (looked up): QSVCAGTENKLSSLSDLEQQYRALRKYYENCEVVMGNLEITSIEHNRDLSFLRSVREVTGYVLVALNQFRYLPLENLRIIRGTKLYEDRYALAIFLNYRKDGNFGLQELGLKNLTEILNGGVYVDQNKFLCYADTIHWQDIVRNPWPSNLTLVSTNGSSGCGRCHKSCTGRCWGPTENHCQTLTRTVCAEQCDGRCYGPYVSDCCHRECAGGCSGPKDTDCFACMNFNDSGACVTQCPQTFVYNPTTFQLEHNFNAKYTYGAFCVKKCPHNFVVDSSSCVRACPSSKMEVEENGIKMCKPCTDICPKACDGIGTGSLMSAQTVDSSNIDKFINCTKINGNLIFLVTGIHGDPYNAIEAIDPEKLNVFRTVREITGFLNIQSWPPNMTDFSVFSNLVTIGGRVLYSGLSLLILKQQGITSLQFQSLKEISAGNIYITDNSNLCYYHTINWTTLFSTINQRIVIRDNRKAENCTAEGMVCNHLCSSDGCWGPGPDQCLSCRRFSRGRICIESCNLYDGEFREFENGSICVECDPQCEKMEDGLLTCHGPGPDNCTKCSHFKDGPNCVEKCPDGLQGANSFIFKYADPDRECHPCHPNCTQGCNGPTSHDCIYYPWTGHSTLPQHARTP
The description is as above. The method, then: as §3, §2

Assay [5] deals with T1, Recombinant protein comprising the …. Description: SPR (BIAcore 2000), peptide dendrimer immobilized, receptor ECD injected; mean ± SEM. The method, then:
as §1, §2

The target of assay [6] is T2, Human ErbB3 extracellular part fused to …. Description: SPR (BIAcore 2000), peptide dendrimer immobilized, receptor ECD-Fc injected; mean ± SEM. The method, then:
as §3, §2

The target of assay [7] is T3, Human ErbB2 extracellular part fused to …. The assay is described as above. The method, then:
as §3, §2

Assay [8] addresses T4, Human ErbB4 extracellular part fused to …. Described as above. The method, then:
as §3, §2

B1: Inherbin1 peptide, tetrameric dendrimer (peptide)
peptide: MLYNPTTYQMDVNPEGK
modifications: also: tetrameric dendrimer: four monomers coupled to a lysine backbone
notes: It was immobilized on a CM5 chip by amine coupling; also called 1DL
On to B1, for which the dissociation constant Kd in assay [1] was determined as 0.0136 µM; in assay [2] it was 0.049 µM. The binding result in assay [3] and in assay [4] was “no binding” each time.

B2: Inherbin3d, tetrameric dendrimer of the Inherbin3 peptide (peptide)
peptide: LVYNKLTFQLEPNPHTK
modifications: also: tetrameric dendrimer: four monomers coupled to a lysine backbone
notes: also called 3DL
Consider B2, for which the results for the dissociation constant Kd in assay [5] and in assay [6] were 0.07 µM and 0.0179 µM, respectively. The binding result in assay [3] and in assay [4] was “no binding (tested: 32 µM (concentration given for FIG. 1))” in each case.

B3: Inherbin4 peptide, tetrameric dendrimer (peptide)
peptide: FVYNPTTFQLEMNFNAK
modifications: also: tetrameric dendrimer: four monomers coupled to a lysine backbone
notes: also called 4DL
B3: the Kd in assay [5] was 0.297 µM; in assay [7], 0.043 µM; in assay [8], 0.0904 µM; in assay [6], 0.0199 µM.
